Reference: PMC4999498

Experiments:
[1] = phospho-S243 immunoblot, anti-IgM-stimulated Ramos; conditions: glycan lost; control: WT Lsp1
[2] = phospho-S243 immunoblot, anti-IgM-stimulated splenic B cells; conditions: glycan gained; control: no TG

B1: lymphocyte-specific protein-1 (Lsp1, mLsp1): S209A (protein)
parent chain: MAEAAIDPRCEEQEELHAEDSEGLTTQWREEDEEEAAREQRQRERERQLQDQDKDKEDDGGHSLEQPGQQTLISLKSSELDEDEGFGDWSQKPEPRQQFWGNEGTAEGTEPSQSERPEEKQTEESSHQAKVHLEESNLSYREPDPEDAVGGSGEAEEHLIRHQVRTPSPLALEDTVELSSPPLSPTTKLADRTESLNRSIKKSNSVKKSQPTLPISTIDERLQQYTQATESSGRTPKLSRQPSIELPSMAVASTKTLWETGEVQSQSASKTPSCQDIVAGDMSKKSLWEQKGGSKISSTIKSTPSGKRYKFVATGHGKYEKVLVDEGSAP
With B1 the “other: phosphorylation at S243” value [1] was “decreases”.

B2: lymphocyte-specific protein-1 (Lsp1, mLsp1): thiamet-G (TG) (protein)
parent chain: B1 parent chain
In the case of B2, the “other: phosphorylation at S243” value [2] is reported as “increases”.
